Here are results for four molecules from publication PMC10090351, “DNA accelerates the protease inhibition of a bacterial serpin chloropin” (Frontiers in Molecular Biosciences, 2023).

Assay [1] concerns the target thrombin (UniProt P00734).
Assay [2] deals with thrombin (UniProt P00734). The source holds these as a separate data set.
The target of assay [3] is thrombin (UniProt P00734). This is another data set of the same source.
Assay [4] deals with thrombin (UniProt P00734). The source holds these as a separate data set.
In the next assay the target is kallikrein 7 (UniProt P49862 30-253). Briefly: cell-based or functional assay.
Chain of kallikrein 7 (P49862 30-253): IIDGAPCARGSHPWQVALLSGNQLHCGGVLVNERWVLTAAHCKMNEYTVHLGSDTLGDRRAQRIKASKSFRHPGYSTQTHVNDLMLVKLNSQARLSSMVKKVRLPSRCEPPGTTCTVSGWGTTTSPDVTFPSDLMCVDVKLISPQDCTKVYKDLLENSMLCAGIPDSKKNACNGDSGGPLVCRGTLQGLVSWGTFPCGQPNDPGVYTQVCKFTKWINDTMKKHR
The target of assay [5] is thrombin (UniProt P00734). The source holds these as a separate data set.

In the assay with thrombin [1], Chloropin K119D (natural protein) came in with a k obs of thrombin inhibition, 375 nM chloropin variant, 75 nM thrombin, with 0.8 nM linear plasmid DNA of 0.0055 s⁻¹; a k obs of thrombin inhibition, 375 nM chloropin variant, 75 nM thrombin, without linear plasmid DNA of 0.0038 s⁻¹; a k obs of thrombin inhibition, 1 uM chloropin variant, 0.1 uM thrombin, with 0.1 uM heparin of 0.0555 s⁻¹; a k obs of thrombin inhibition, 1 uM chloropin variant, 0.1 uM thrombin, without heparin of 0.0095 s⁻¹.
In the assay with thrombin [1], Chloropin K126D/K127D (natural protein) showed a k obs of thrombin inhibition, 375 nM chloropin variant, 75 nM thrombin, with 0.8 nM linear plasmid DNA of 0.0035 s⁻¹; a k obs of thrombin inhibition, 375 nM chloropin variant, 75 nM thrombin, without linear plasmid DNA of 0.0036 s⁻¹; a k obs of thrombin inhibition, 1 uM chloropin variant, 0.1 uM thrombin, with 0.1 uM heparin of 0.0107 s⁻¹; a k obs of thrombin inhibition, 1 uM chloropin variant, 0.1 uM thrombin, without heparin of 0.0086 s⁻¹.
In the assay with thrombin [1], Chloropin K268D/K269D (natural protein) displayed a k obs of thrombin inhibition, 375 nM chloropin variant, 75 nM thrombin, with 0.8 nM linear plasmid DNA of 0.0041 s⁻¹; a k obs of thrombin inhibition, 375 nM chloropin variant, 75 nM thrombin, without linear plasmid DNA of 0.0035 s⁻¹; a k obs of thrombin inhibition, 1 uM chloropin variant, 0.1 uM thrombin, with 0.1 uM heparin of 0.0096 s⁻¹; a k obs of thrombin inhibition, 1 uM chloropin variant, 0.1 uM thrombin, without heparin of 0.0083 s⁻¹.

B1: chloropin (natural protein, Chlorobium limicola, UniProt B3ECZ8 54-420, looked up)
chain: ELAVDLYRNLAVTGKNLFFSPSSIETALSMTMSGARNRTERQMADVMHVGPDAMERHHAGLASFEKQLESIQKKGKVTIASSNSIWPQKNYPLAPSWLAQLKRYYGTSVTPVDYIHETEKARIAINRRVEKDTKNRIRELLKPGILDPLTRLALVNAVYFKGDWEHPFNENNTVASPFYIRQGTTGKAPLMRQSASFGYGDHDGVQVLELPYAGKKLSMIVVLPKERFGLEALEKTLTPKQFALWTANLSERKIEALLPKFRTTSAFRLDETLRHMGMTDAFDRNLADFSGMVSNSDKLYIGAVVHKAFVDVGEKGTEAAAATAVVMQLRSAMPMPVPVFKADHPFLFAIRENSTGRILFMGRISDP
The molecule B1 came in with a second order rate constant of thrombin inhibition with DNA in the assay with thrombin [2] of 3.6e+06 M⁻¹ s⁻¹. Further, in the assay with thrombin [3], the fold increase of the rate of thrombin inhibition with linear DNA (series of concentrations; maximum around 2.4-4.8 nM) came out at 142 fold; the fold increase of the rate of thrombin inhibition with supercoiled plasmid DNA (0.05-25.6 nM, bell-shaped; 1.5-fold at 0.1 nM, maximum between 1.6 and 3.2 nM) was found to be 74 fold. For the same molecule, in the assay with thrombin [4], the k 2, derived second-order inhibition rate constant worked out at 25000 M⁻¹ s⁻¹; the k app, apparent second-order rate constant of thrombin inhibition (residual protease activity) was found to be 14700 M⁻¹ s⁻¹; the stoichiometry of inhibition (SI), residual thrombin activity after 12 h with 0-2 uM chloropin is 1.68. In the assay with thrombin [1], this molecule showed a k obs of thrombin inhibition, 375 nM chloropin, 75 nM thrombin, with 0.8 nM linear plasmid DNA of 0.0142 s⁻¹; a k obs of thrombin inhibition, 375 nM chloropin, 75 nM thrombin, with supercoiled plasmid DNA of 0.0193 s⁻¹; a k obs of thrombin inhibition, 375 nM chloropin, 75 nM thrombin, without linear plasmid DNA of 0.0035 s⁻¹; a k obs of thrombin inhibition, 375 nM chloropin, 75 nM thrombin, without supercoiled plasmid DNA of 0.0035 s⁻¹. In the assay with thrombin [1], this molecule displayed a k obs of thrombin inhibition, 1 uM chloropin, 0.1 uM thrombin, with 0.1 uM heparin of 0.0667 s⁻¹ and a k obs of thrombin inhibition, 1 uM chloropin, 0.1 uM thrombin, without heparin of 0.0083 s⁻¹. Also, in the assay with kallikrein 7, the “stoichiometry of inhibition (SI), residual KLK7 activity after 12 h with 0-2 uM chloropin” value is 1.55. Moreover, the fold increase of k obs of thrombin inhibition with low molecular weight heparin (series of concentrations, bell-shaped; 5.9-fold at 0.1 uM, maximum at 0.5 uM) with thrombin [5] was 17.2 fold.
